Publication PMC3476979

Target: endogenous phospho-IKKα/β, O15111;O14920
Assay: co-immunoprecipitation (IP with anti-Tax mab, blot with anti-phospho-IKK), band quantified as Phospho-IKK/Tax
Conditions: 293 T cells, parent: 100

Substance	percent of parent [% WT]
wild-type Tax protein of Human T-lymphotropic virus type 1 (HTLV-1), C-terminal 6His tag (Tax-His) (from UniProt P03409) K7R	95
wild-type Tax protein of Human T-lymphotropic virus type 1 (HTLV-1), C-terminal 6His tag (Tax-His) (from UniProt P03409) K4-8R	2
wild-type Tax protein of Human T-lymphotropic virus type 1 (HTLV-1), C-terminal 6His tag (Tax-His) (from UniProt P03409) P79A; Q81A	84
wild-type Tax protein of Human T-lymphotropic virus type 1 (HTLV-1), C-terminal 6His tag (Tax-His) (from UniProt P03409) M22	< 1
wild-type Tax protein of Human T-lymphotropic virus type 1 (HTLV-1), C-terminal 6His tag (Tax-His) (from UniProt P03409) K1-10R	3
wild-type Tax protein of Human T-lymphotropic virus type 1 (HTLV-1), C-terminal 6His tag (Tax-His) (from UniProt P03409) K6-8R	10
wild-type Tax protein of Human T-lymphotropic virus type 1 (HTLV-1), C-terminal 6His tag (Tax-His) (from UniProt P03409) K7-8R	27
